Tests used:
human 5T4 on cells = molecular target: T1, human 5T4 on cells (human, UniProt Q13641 32-420); test: flow cytometry, CHO-K1/human 5T4 cells (FIG. 4)
T1 construct: Human 5T4 on transfected cells (CHO-K1, CT26, B16) or endogenous on human tumour lines; the cell line is named under assay; also called trophoblast glycoprotein; TPBG
T1 sequence: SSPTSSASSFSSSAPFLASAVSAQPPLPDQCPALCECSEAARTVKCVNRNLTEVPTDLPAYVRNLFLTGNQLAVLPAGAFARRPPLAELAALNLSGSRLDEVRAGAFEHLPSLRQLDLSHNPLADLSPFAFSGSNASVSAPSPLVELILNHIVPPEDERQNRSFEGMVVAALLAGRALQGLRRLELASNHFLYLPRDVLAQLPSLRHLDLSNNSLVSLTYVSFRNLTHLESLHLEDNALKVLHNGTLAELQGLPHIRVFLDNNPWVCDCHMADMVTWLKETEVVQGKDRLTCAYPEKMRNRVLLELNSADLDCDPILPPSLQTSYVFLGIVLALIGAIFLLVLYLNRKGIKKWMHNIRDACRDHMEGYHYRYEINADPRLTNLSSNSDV
Procedure: (§1) Binding studies were performed by standard flow cytometry-based staining procedures two cell lines expressing 5T4:CHO-K1 cells (obtained from Alligator) transduced with human or cynomolgus macaque 5T4 and SKOV-3 human ovarian adenocarcinoma cells which express (human) 5T4. All labeling and washes were performed in U-bottom 96-well plates in saline buffer with 0.1% BSA and 2 mM EDTA. Cell were plated at approximately 100,000 cells per well and incubated with a range of 100 nM to 0.05 nM concentrations of test molecules in 50 μL volume/well, for 30 minutes on ice. Cells were washed three times then incubated for another 30 min on ice with fluorescently-labeled secondary polyclonal antibody, F(ab′)² goat anti-human IgG (Jackson ImmunoResearch Laboratories). The cells were then washed twice and the samples acquired in a BD LSRII or a Symphony A3 flow cytometer. The sample files were analyzed using FlowJo software; the mean fluorescence intensity (MFI-mean) or median fluorescence intensity (MFI-median) of the live population of cells in each well was calculated after gating on live cells (forward vs side scatter). Nonlinear regression analysis to determine EC₅₀ values was performed in GraphPad Prism 6® graphing and statistics software.
The differences in EC₅₀ values between constructs were more evident when binding assays were conducted on SKOV-3 cells. […]

cynomolgus 5T4 on cells = molecular target: T2, cynomolgus 5T4 on cells (cynomolgus macaque, UniProt Q4R8Y9 35-420); test: flow cytometry, CHO-K1/cynomolgus 5T4 transfectants (FIG. 7)
T2 construct: whole, on cells; also called CHO-K1/cynomolgus 5T4
T2 sequence (looked up): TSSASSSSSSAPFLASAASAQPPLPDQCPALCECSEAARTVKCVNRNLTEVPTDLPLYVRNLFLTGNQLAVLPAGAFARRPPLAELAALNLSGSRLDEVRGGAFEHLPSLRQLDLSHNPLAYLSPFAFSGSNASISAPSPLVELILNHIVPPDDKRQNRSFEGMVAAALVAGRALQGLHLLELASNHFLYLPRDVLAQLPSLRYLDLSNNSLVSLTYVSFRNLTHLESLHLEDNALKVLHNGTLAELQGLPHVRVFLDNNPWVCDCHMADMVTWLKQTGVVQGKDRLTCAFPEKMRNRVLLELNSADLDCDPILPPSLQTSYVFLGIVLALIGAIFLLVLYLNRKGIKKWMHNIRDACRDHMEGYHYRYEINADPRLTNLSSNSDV
Procedure: as §1

- binding result (human 5T4 on cells): binds
- binding result (cynomolgus 5T4 on cells): binds
B1: ALG.APV-191 (bispecific antibody)
chain: EVQLLESGGGLVQPGGSLRLSCAASGFTFDYGSMYWVRQAPGKGLEWVSSISSGSGSTYYADSVKGRFTISHDNSKNTLYLQMNSLRAEDTAVYYCARSSYYGSYYSIDYWGQGTLVTVSSGGGGSGGGGSGGGGSGGGGSDIQMTQSPSSLSASVGDRVTITCRASQSISSYLNWYQQKPGKAPKLLIYAASSLHSGVPSRFSGSGSGTDFTLTISSLQPEDFATYYCQQYYDNLPTFGQGTKLEIKSSEPKSSDKTHTCPPCPAPEAAGAPSVFLFPPKPKDTLMISRTPEVTCVVVDVSHEDPEVKFNWYVDGVEVHNAKTKPREEQYNSTYRVVSVLTVLHQDWLNGKEYKCAVSNKALPAPIEKTISKAKGQPREPQVYTLPPSRDELTKNQVSLTCLVKGFYPSDIAVEWESNGQPENNYKTTPPVLDSDGSFFLYSKLTVDKSRWQQGNVFSCSVMHEALHNHYTQKSLSLSPGSGGGGSGGGGSGGGGSPSEVQLLESGGGLVQPGGSLRLSCAASGFTFSSYAMSWVRQAPGKCLEWVSAISGSGGSTYYADSVKGRFTISRDNSKNTLYLQMNSLRAEDTAVYYCARYYGGYYSAWMDYWGQGTLVTVSSGGGGSGGGGSGGGGSGGGGSDIQMTQSPSSLSASVGDRVTITCRASQSISSFLNWYQQKPGKAPKLLIYAASSLQSGVPSRFSGSGSGTDFTLTISSLQPEDFATYYCQQTYGYLHTFGCGTKLEIKS
notes: scFv-Fc-scFv (ADAPTIR) homodimer

Reference: patent US20190382503A1 (published 2019)
